These results are taken from publication PMC4521159.

Assay [1] has as its target α-synuclein oligomers formed during incubation with IDE (37 °C, 48 h, agitation) (UniProt P37840).
The target of assay [2] is pre-formed α-synuclein oligomers (formed with the small molecule FN075) (UniProt P37840). Put plainly: ITC; 200 μM IDE in the syringe, 20 μM pre-formed α-synuclein oligomers (FN075) in the cell; 20 or 30 °C; 20 mM phosphate pH 7.4, 140 mM NaCl. For orientation: Isothermal titration calorimetry measures the heat released or taken up as one component is titrated into another.

Assay [3] addresses α-synuclein oligomers formed during incubation with IDE (37 °C, 48 h, agitation) (UniProt P37840). This is another data set of the same source.

On to “Insulin-degrading enzyme (IDE) (from UniProt P14735 1-1019)”, for which, in assay [1], the kcat of 1 μM IDE on fluorogenic substrate V after 48 h pre-incubation with 0-100 μM α-synuclein (0.020 without; highest at 100 μM) amounted to 0.058 s⁻¹, the kcat of 3 μM IDE on fluorogenic substrate V after 48 h pre-incubation with 0-70 μM α-synuclein (0.241 without; highest at 35 μM) is 0.397 s⁻¹, the kcat/KM of 1 μM IDE on fluorogenic substrate V after 48 h pre-incubation with 0-100 μM α-synuclein (1010 without; highest at 100 μM) was found to be 1190 M⁻¹ s⁻¹ and the kcat/KM of 3 μM IDE on fluorogenic substrate V after 48 h pre-incubation with 0-70 μM α-synuclein (25400 without; highest at 35 μM) was determined as 30500 M⁻¹ s⁻¹. In assay [2], this substance came in with a stoichiometry N (IDE molecules per α-synuclein oligomer) of 3. Besides, the ThT fluorescence of 70 μM α-synuclein after 48 h (37 °C, agitation) with 0.2-6.0 μM IDE; half maximal inhibition of amyloid formation (molar ratio IDE to α-synuclein) in assay [3] came out at 0.025.
